Laboratory results from PMC4609965 (2015).

Molecular target: alpha-synuclein (Homo sapiens, UniProt P37840)
Assay: NMR PRE titration

Kd [µM]	Binder
~500	YEMPSEEGYQDYEPEA [alpha-synuclein 125-140]
~100	EGESYEDPPQEEYQEYEPEA [beta-synuclein 115-134]
